# Source: patent publication US20250171562A1 (ALK ABELL, published 2025)
# Positions count from the first letter of the chain named. Numbers in names are those of the source.
# B1: CIgG4B1A1(G4S3) (Fc fusion)
# chain 1: GPPCPPCPAPEFLGGPSVFLFPPKPKDTLMISRTPEVTCVVVDVSQEDPEVQFNWYVDGVEVHNAKTKPREEQFNSTYRVVSVLTVLHQDWLNGKEYKCKVSNKGLPSSIEKTISKAKGQPREPQVYTLPPCQEEMTKNQVSLWCLVKGFYPSDIAVEWESNGQPENNYKTTPPVLDSDGSFFLYSRLTVDKSRWQEGNVFSCSVMHEALHNHYTQKSLSLSLGKGGGGSGGGGSGGGGSQVQLQESGGGLVQTGGSLRLSCAVHGRTFSNTGMGWFRQAPGNERQFVAIISPSGTSTYYADSVKGRFTISRDPAKNTVYLQMNSLKMDDTAVYYCAASYGSNWSTLRHQRRNEYDAWGQGTQVAVS
# chain 2: GPPCPPCPAPEFLGGPSVFLFPPKPKDTLMISRTPEVTCVVVDVSQEDPEVQFNWYVDGVEVHNAKTKPREEQFNSTYRVVSVLTVLHQDWLNGKEYKCKVSNKGLPSSIEKTISKAKGQPREPQVCTLPPSQEEMTKNQVSLSCAVKGFYPSDIAVEWESNGQPENNYKTTPPVLDSDGSFFLVSRLTVDKSRWQEGNVFSCSVMHEALHNHYTQKSLSLSLGKGGGGSGGGGSGGGGSEVQLLESGGGLVQPGGSLRLSCAASGFTFGNYDMAWVRQAPGKRPEWVSSIDTGGDITHYADSVKGRFTISRDNAKNTLYLQMNSLRPEDTAVYWCATDEEYALGPNEFDYYGQGTLVTVSS
# B2: NIgG4A1A1(RS) (Fc fusion)
# chain 1: EVQLLESGGGLVQPGGSLRLSCAASGFTFGNYDMAWVRQAPGKRPEWVSSIDTGGDITHYADSVKGRFTISRDNAKNTLYLQMNSLRPEDTAVYWCATDEEYALGPNEFDYYGQGTLVTVSSRSGPPCPPCPAPEFLGGPSVFLFPPKPKDTLMISRTPEVTCVVVDVSQEDPEVQFNWYVDGVEVHNAKTKPREEQFNSTYRVVSVLTVLHQDWLNGKEYKCKVSNKGLPSSIEKTISKAKGQPREPQVYTLPPCQEEMTKNQVSLWCLVKGFYPSDIAVEWESNGQPENNYKTTPPVLDSDGSFFLYSRLTVDKSRWQEGNVFSCSVMHEALHNHYTQKSLSLSLGK
# chain 2: B2 chain 1 with Y251C, C256S, W268S, L270A, Y309V
# B3: NIgG4A1A1(G4S)1 (Fc fusion)
# chain 1: EVQLLESGGGLVQPGGSLRLSCAASGFTFGNYDMAWVRQAPGKRPEWVSSIDTGGDITHYADSVKGRFTISRDNAKNTLYLQMNSLRPEDTAVYWCATDEEYALGPNEFDYYGQGTLVTVSSGGGGSGPPCPPCPAPEFLGGPSVFLFPPKPKDTLMISRTPEVTCVVVDVSQEDPEVQFNWYVDGVEVHNAKTKPREEQFNSTYRVVSVLTVLHQDWLNGKEYKCKVSNKGLPSSIEKTISKAKGQPREPQVYTLPPCQEEMTKNQVSLWCLVKGFYPSDIAVEWESNGQPENNYKTTPPVLDSDGSFFLYSRLTVDKSRWQEGNVFSCSVMHEALHNHYTQKSLSLSLGK
# chain 2: B3 chain 1 with Y254C, C259S, W271S, L273A, Y312V
# B4: CIgE4A1A1(GS)1 (Fc fusion)
# chain 1: GPPCPPCPAPEFLGGPSVFLFPPKPKDTLMISRTPEVTCVVVDVSQEDPEVQFNWYVDGVEVHNAKTKPREEQFNSTYRVVSVLTVLHQDWLNGKEYKCKVSNKGLPSSIEKTISKAKGQPREPQVYTLPPCQEEMTKNQVSLWCLVKGFYPSDIAVEWESNGQPENNYKTTPPVLDSDGSFFLYSRLTVDKSRWQEGNVFSCSVMHEALHNHYTQKSLSLSLGKGGGGSEVQLLESGGGLVQPGGSLRLSCAASGFTFGNYDMAWVRQAPGKRPEWVSSIDTGGDITHYADSVKGRFTISRDNAKNTLYLQMNSLRPEDTAVYWCATDEEYALGPNEFDYYGQGTLVTVSS
# chain 2: B4 chain 1 with Y127C, C132S, W144S, L146A, Y185V
# notes: label printed with IgE4/(GS); also called CIgG4A1A1(G4S)1
# B5: CIgG4A1A1(RS) (Fc fusion)
# chain 1: GPPCPPCPAPEFLGGPSVFLFPPKPKDTLMISRTPEVTCVVVDVSQEDPEVQFNWYVDGVEVHNAKTKPREEQFNSTYRVVSVLTVLHQDWLNGKEYKCKVSNKGLPSSIEKTISKAKGQPREPQVYTLPPCQEEMTKNQVSLWCLVKGFYPSDIAVEWESNGQPENNYKTTPPVLDSDGSFFLYSRLTVDKSRWQEGNVFSCSVMHEALHNHYTQKSLSLSLGKRSEVQLLESGGGLVQPGGSLRLSCAASGFTFGNYDMAWVRQAPGKRPEWVSSIDTGGDITHYADSVKGRFTISRDNAKNTLYLQMNSLRPEDTAVYWCATDEEYALGPNEFDYYGQGTLVTVSS
# chain 2: B5 chain 1 with Y127C, C132S, W144S, L146A, Y185V
# B6: NIgG4A1A1(G4S)3 (Fc fusion)
# chain 1: EVQLLESGGGLVQPGGSLRLSCAASGFTFGNYDMAWVRQAPGKRPEWVSSIDTGGDITHYADSVKGRFTISRDNAKNTLYLQMNSLRPEDTAVYWCATDEEYALGPNEFDYYGQGTLVTVSSGGGGSGGGGSGGGGSGPPCPPCPAPEFLGGPSVFLFPPKPKDTLMISRTPEVTCVVVDVSQEDPEVQFNWYVDGVEVHNAKTKPREEQFNSTYRVVSVLTVLHQDWLNGKEYKCKVSNKGLPSSIEKTISKAKGQPREPQVYTLPPCQEEMTKNQVSLWCLVKGFYPSDIAVEWESNGQPENNYKTTPPVLDSDGSFFLYSRLTVDKSRWQEGNVFSCSVMHEALHNHYTQKSLSLSLGK
# chain 2: B6 chain 1 with Y264C, C269S, W281S, L283A, Y322V
# B7: NIgG4A1A1(G4S)2 (Fc fusion)
# chain 1: EVQLLESGGGLVQPGGSLRLSCAASGFTFGNYDMAWVRQAPGKRPEWVSSIDTGGDITHYADSVKGRFTISRDNAKNTLYLQMNSLRPEDTAVYWCATDEEYALGPNEFDYYGQGTLVTVSSGGGGSGGGGSGPPCPPCPAPEFLGGPSVFLFPPKPKDTLMISRTPEVTCVVVDVSQEDPEVQFNWYVDGVEVHNAKTKPREEQFNSTYRVVSVLTVLHQDWLNGKEYKCKVSNKGLPSSIEKTISKAKGQPREPQVYTLPPCQEEMTKNQVSLWCLVKGFYPSDIAVEWESNGQPENNYKTTPPVLDSDGSFFLYSRLTVDKSRWQEGNVFSCSVMHEALHNHYTQKSLSLSLGK
# chain 2: B7 chain 1 with Y259C, C264S, W276S, L278A, Y317V
# Biological target: T1, recombinant human IgE (human, UniProt P01854-1 1-428)
# T1 construct: made in-house (ALK); preloaded on immobilised FcεRIα in the displacement ELISA
# T1 sequence (P01854 other isoform, or with tags, fused parts or gaps): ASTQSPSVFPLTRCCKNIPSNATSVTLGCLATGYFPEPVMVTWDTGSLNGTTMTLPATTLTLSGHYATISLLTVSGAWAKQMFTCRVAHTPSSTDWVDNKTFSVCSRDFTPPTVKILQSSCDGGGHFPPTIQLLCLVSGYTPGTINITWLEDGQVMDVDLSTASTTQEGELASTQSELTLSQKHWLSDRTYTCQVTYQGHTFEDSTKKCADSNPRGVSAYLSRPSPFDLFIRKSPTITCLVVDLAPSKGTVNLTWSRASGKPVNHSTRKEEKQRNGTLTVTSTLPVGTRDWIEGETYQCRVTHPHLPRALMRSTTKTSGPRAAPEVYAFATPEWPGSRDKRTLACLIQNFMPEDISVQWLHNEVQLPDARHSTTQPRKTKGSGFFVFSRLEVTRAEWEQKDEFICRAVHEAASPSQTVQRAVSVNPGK
# Assay: IgE-FcεRIα displacement ELISA
# Description: The displacement effect was tested using IgE-FcεRIα displacement ELISA assay. Maxisorp® microtiter plates (Thermo Scientific Nunc, Roskilde, Denmark) were coated with 100 μl streptavidin, 5 μg/ml (Thermo Scientific, Waltham, MA) for 18 h at 4° C. followed by wash with 300 μl washing buffer (PBS containing 0.05% Tween 20) using an AquaMax® 2000 plate washer (Molecular Devices, San Jose, CA). Remaining binding sites were blocked with 250 μl blocking buffer (PBS containing 2% BSA) for 2 h and washed with 300 μl washing buffer. Subsequently, the bound streptavidin was loaded with 100 μl (0.1 μg/ml) recombinant human FcεRIα (site specific biotinylated via avi-tag, made in-house, ALK, Hørsholm, Denmark) for 1 h and plates washed twice with 300 μl washing buffer. The bound receptor was then loaded with 100 μl recombinant human IgE (made in-house, ALK, Hørsholm, Denmark), 13 ng/ml (pre-titrated to reach an OD₄₅₀ signal in the range of 1.5-2.5 in the absence of displacement components) for 1h followed by three washes of 300 μl washing buffer.
# displacement step: 100 μl sdAbs diluted in concentration series (pM-μM range) or blocking buffer only as a non-displacement negative control, were added to the ELISA wells and incubated for 1 h. Any IgE, displaced from the receptor by a sdAb was washed away by three washes of 300 μl washing buffer.
# The ability of the various sdAbs to displace IgE from the receptor (FcεRIα) was evaluated by use of the ELISA based IgE-FcεRIα displacement assay. The percent displacement effect was calculated as the relative reduction in signal compared to the control with no sdAb added. The EC₅₀ values and the maximal effects were determined (table 15).
EC50 [nM],Max effect [%],Binder
3.5,> 95,B1
490,,B2
260,,B3
,~40,B4
,< 20,B5
310,,B6
230,,B7
